Assay results from patent US20040076637A1, “HIV-derived HR1 peptides modified to form stable trimers, and their use in therapy to inhibit transmission of human immunodeficiency virus” (priority 2002, published 2004).

How the values were obtained:
[1] = at concentrations of 5 μM or less; cited from earlier work
[2] = test system: HIV infection of T cells; conditions: cited from earlier work
[3] = test system: HIV IIIB; type: cell-based, HIV-1; conditions: for Antiviral activity against HIV IIIB IC50: 50% reduction in infectious virus titer; for Antiviral activity against HIV IIIB IC90: 90% reduction in infectious titer
[4] = Thermal stability (Tm) by CD signal at 222 nm; type: physicochemical; conditions: at 10 μM
Protocol: (§1) Helicity was assessed by circular dichroism (“CD”) as follows. Briefly, CD spectra were obtained using a spectrometer equipped with a thermoelectric temperature controller. The spectra was obtained at 25° C. with 0.5 nanometer (nm) steps from 200 to 260 nm, with a 1.5 nm bandwith, and a typical averaging time of 4 seconds/step. After the cell/buffer blank was subtracted, spectra were smoothed using a third-order least-squares polynomial fit with a conservative window size to give random residuals. Raw ellipticity values were converted to mean residue ellipticity using standard methods, and plotted was the wavelength (from 200 to 260 nm) versus [θ]×10^−3 (degrees cm^2/dmol). Percent helicity values were then calculated using standard methods. Assessment of thermal stability was performed by monitoring the change in CD signal at 222 nm as temperature was raised in 2° C. steps, with 1 minute equilibration times. The thermal stability for each sample (e.g., synthetic peptide) was represented by the transition temperature (Tm) determined by the derivative method.

[5] = Helicity by circular dichroism; type: physicochemical; conditions: at 10 μM, 25° C.
Protocol: as §1

[6] = Oligomerization state by sedimentation equilibrium (analytical ultracentrifuge); type: physicochemical; conditions: in solution, 4° C.
Protocol: Oligomerization state was assessed by using methods standard in the art for performing sedimentation equilibrium experiments and for analysis of the resultant data. In that regard, sedimentation equilibrium experiments were performed over a concentration range of synthetic peptide (1 μM to […]) as follows. Briefly, six-channel cells (12 mm optical path length) were used with an An-60 Ti rotor operated at 13,500 rpm, 18,000 rpm, 22,000 rpm, and 35,000 rpm) in an analytical ultracentrifuge at 4° C. The cell radii were scanned using 0.001 cm steps with 10 averages/scan at 3 different wavelengths (235 nm, 240 nm, 280 nm). Data obtained with solutions containing synthetic peptide was analyzed using a single species model to determine a weight-averaged molecular weight (MW). Diagnostic plots of MW/MW0 vs. rpm/rpm0 and MW vs. radial concentration were used to test for sample homogeneity. When systemic residuals or a MW higher than monomer molecular weight indicated the presence of self-association, associative models were investigated. The suitability of a model (goodness of fit) was judged by the trends observed in the residuals.

[7] = test system: HR2 peptide (SEQ ID NO:33) derived from the HR2 region of HIV-1 gp41; test: HR2 peptide binding, fluorescence polarization assay; conditions: ability to complex with HR2 peptide denoted as yes
Excerpt: These include a protein chip assay (using Biacore analysis) in which surface plasmon resonance is used to detect the binding, and kinetics thereof, between a synthetic peptide and an HR2 peptide; and a fluorescence polarization assay. In the fluorescence polarization assay, a detectable moiety comprising a fluorescent dye (e.g., rhodamine and/or fluorescein) was used to label HR2 peptide, and the assay was then allowed to proceed under sufficient conditions and for a sufficient period of time for labeled peptide to bind to HR1 peptide, or synthetic peptide (or trimer formed therefrom).

[8] = molecular target: HR2 peptide having the amino acid sequence of SEQ ID NO:33 (HIV-1); test: surface plasmon resonance (Biacore protein chip assay)

Molecule	Oligomerization state in solution [1]	50% effective concentration (EC50), blocked infection of T cells [2] [µg/mL]	Antiviral activity against HIV IIIB IC50 [3] [µg/mL]	Antiviral activity against HIV IIIB IC90 [3] [µg/mL]	Stability Tm [4] [°C]	Helicity [5] [%]	Oligomerization [6]	HR2 peptide binding [7]	Kd [8] [nM]
DP107: HR1 peptide, also known as T-21, a synthetic peptide having the amino acid sequence of SEQ ID NO:2 (NNLLRAIEAQQHLLQLTVWGIKQLQARILAVERYLKDQ)	monomer/dimer/tetramer equilibrium	1	–	–	–	–	–	–	–
SEQ ID NO: 38: Same as SEQ ID NO:32 except substitutions at 27, 34, 41, 48 and 23, 30, 44; Asp and Gln added to C-terminus (QARQLLSGIVQQQNNLLRAIEATQHAVQALVWGVKQLQARVLALERYIKDQ)	–	–	0.18	0.88	90	79	Trimer*	Yes	–
SEQ ID NO: 39: Same as SEQ ID NO:32 except substitutions at 6, 20, 41, 48 and 9, 16, 44; Asp and Gln added to C-terminus (QARQLVSGLVQQQNNILRALEAQQHALQATVWGIKQLQARVLALERYIKDQ)	–	–	0.26	1.20	68	63	Trimer*	Yes	–
QARQLVSGLVQQQNNILRALEATQHAVQALVWGVKQLQARVLALERYIK (modifications not checked) [synthetic peptide having the amino acid sequence of SEQ ID NO:35]	–	–	–	–	–	–	–	–	21.8
